Positions count from the first letter of the chain named. Names and notes keep the numbering of the source.
T1: VEGF121 (human, UniProt P15692 27-147)
T1 construct: mature; Immobilized on the biosensor chip via primary amino groups; also called Purified VEGF121
T1 sequence (looked up): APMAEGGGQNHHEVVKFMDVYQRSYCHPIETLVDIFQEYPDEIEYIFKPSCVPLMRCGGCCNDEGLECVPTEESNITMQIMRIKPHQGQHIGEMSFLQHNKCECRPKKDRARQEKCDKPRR

B1: hu2.1 (Fab, name in Kabat numbering, V domains shown)
VH: EVQLVESGGGLVQPGGSLRLSCAASGYTFTNYGMNWIRQAPGKGLEWVGWINTYTGEPTYAADFKRRFTISRDNSKNTVYLQMNSLRAEDTAVYYCAKYPHYYGSSHWYFDVWGQGTLVTVSS
VL: DIQMTQSPSSLSASVGDRVTITCSASQDISNYLNWYQQKPGKAPKLLIYFTSSLHSGVPSRFSGSGSGTDYTLTISSLQPEDFATYYCQQYSTVPWTFGQGTKVEIK
notes: soluble Fab with human constant domains
B2: hu2.7 (Fab, name in Kabat numbering, V domains shown)
VH: B1 VH
VL: B1 VL with M4L, Y71F
notes: as for B1
B3: hu2.10 (Fab, V domains shown)
VH: B1 VH with R72L, N74T, K76A, N77S
VL: B1 VL
notes: Soluble Fab with human constant domains; also called consensus clone hu2.10
B4: hu2.2 (Fab, name in Kabat numbering, V domains shown)
VH: B1 VH
VL: B1 VL with M4L
notes: as for B1
B5: hu2.6 (Fab, name in Kabat numbering, V domains shown)
VH: B1 VH with F68T, R72L, N74T, K76A, N77S
VL: B1 VL with M4L, Y71F
notes: as for B1
B6: hu2.10V (Fab, V domains shown)
VH: B1 VH with R72L, N74T, K76A, N77S
VL: B1 VL with L46V
notes: Soluble Fab with human constant domains; also called hu2.10 with mutation VL Leu->Val
B7: pY0192 VL A25S (Fab, V domains shown)
VH: EVQLVESGGGLVQPGGSLRLSCAASGYTFTNYGINWVRQAPGKGLEWVGWINTYTGEPTYAADFKRRFTFSLDTSKSTAYLQMNSLRAEDTAVYYCAKYPHYYGSSHWYFDVWGQGTL
VL: DIQLTQSPSSLSASVGDRVTITCRSNEQLSNYLNWYQQKPGKAPKVLIYFTSSLHSGVPSRFSGSGSGTDFTLTISSLQPEDFATYYCQQYSTVPWTFGQGTKVEIKR
notes: Ala-scan variant of pY0192; Fab on phage
B8: pY0192 VL T97A (Fab, V domains shown)
VH: B7 VH
VL: B7 VL with S25A, T97A
notes: as for B7
B9: pY0192 VL Y91A (Fab, V domains shown)
VH: B7 VH
VL: B7 VL with S25A, Y91A
notes: as for B7
B10: pY0192 VL N34A (Fab, V domains shown)
VH: B7 VH
VL: B7 VL with S25A, N34A
notes: as for B7
B11: pY0192 VL Q28A (Fab, V domains shown)
VH: B7 VH
VL: B7 VL with S25A, Q28A
notes: as for B7
B12: pY0192 VL L54A (Fab, V domains shown)
VH: B7 VH
VL: B7 VL with S25A, L54A
notes: as for B7
B13: pY0192 VL Q89A (Fab, V domains shown)
VH: B7 VH
VL: B7 VL with S25A, Q89A
notes: as for B7
B14: pY0192 VL Q90A (Fab, V domains shown)
VH: B7 VH
VL: B7 VL with S25A, Q90A
notes: as for B7
B15: pY0192 VL T93A (Fab, V domains shown)
VH: B7 VH
VL: B7 VL with S25A, T93A
notes: as for B7
B16: pY0192 VL R24A (Fab, V domains shown)
VH: B7 VH
VL: B7 VL with R24A, S25A
notes: as for B7
B17: pY0192 VL T51A (Fab, V domains shown)
VH: B7 VH
VL: B7 VL with S25A, T51A
notes: as for B7
B18: pY0192 VL F50A (Fab, V domains shown)
VH: B7 VH
VL: B7 VL with S25A, F50A
notes: as for B7
B19: pY0192 VL Y32A (Fab, V domains shown)
VH: B7 VH
VL: B7 VL with S25A, Y32A
notes: Ala-scan variant of pY0192; Fab on phage; also called Y32A (VL)
B20: pY0192 VL V94A (Fab, V domains shown)
VH: B7 VH
VL: B7 VL with S25A, V94A
notes: as for B7
B21: pY0192 VL L29A (Fab, V domains shown)
VH: B7 VH
VL: B7 VL with S25A, L29A
notes: as for B7
B22: pY0192 VL E27A (Fab, V domains shown)
VH: B7 VH
VL: B7 VL with S25A, E27A
notes: as for B7
B23: pY0192 VL S52A (Fab, V domains shown)
VH: B7 VH
VL: B7 VL with S25A, S52A
notes: as for B7
B24: pY0192 VL N31A (Fab, V domains shown)
VH: B7 VH
VL: B7 VL with S25A, N31A
notes: Ala-scan variant of pY0192; Fab on phage; also called N31A (VL)
B25: pY0192 VL S53A (Fab, V domains shown)
VH: B7 VH
VL: B7 VL with S25A, S53A
notes: as for B7
B26: pY0192 VL S30A (Fab, V domains shown)
VH: B7 VH
VL: B7 VL with S25A, S30A
notes: as for B7
B27: pY0192 VL H55A (Fab, V domains shown)
VH: B7 VH
VL: B7 VL with S25A, H55A
notes: as for B7
B28: pY0192 VL N26A (Fab, V domains shown)
VH: B7 VH
VL: B7 VL with S25A, N26A
notes: as for B7
B29: pY0192 VL P95A (Fab, V domains shown)
VH: B7 VH
VL: B7 VL with S25A, P95A
notes: as for B7
B30: pY0192 VL L33A (Fab, V domains shown)
VH: B7 VH
VL: B7 VL with S25A, L33A
notes: as for B7
B31: pY0192 VL S92A (Fab, V domains shown)
VH: B7 VH
VL: B7 VL with S25A, S92A
notes: as for B7
B32: pY0192 VL S56A (Fab, V domains shown)
VH: B7 VH
VL: B7 VL with S25A, S56A
notes: as for B7

These binders were tested against T1, VEGF121 (assay: BIAcore SPR, Fab over immobilized VEGF121).
Protocol: VEGF₁₂₁ was covalently immobilized on the biosensorchip via primary amino groups. Binding of humanized A4.6.1 Fab variants was measured by flowing solutions of Fab in PBS/0.05% TWEEN 20™ over the chip at a flow rate of 20 μL/min. Following each binding measurement, residual Fab was stripped from the immobilized ligand by washing with 5 μL of 50 mM aqueous HCl at 3 μL/min. Binding profiles were analyzed by nonlinear regression using a simple monovalent binding model (BIAevaluation software v2.0; Pharmacia).

Row | Binder | KD(A4.6.1)/KD(mut) as headed (values read as KD(mut)/KD(A4.6.1)) [ratio] | Kd [nM] | koff [s⁻¹] | kon [M⁻¹ s⁻¹] | fold tighter KD than hu2.0 [fold] | fold improvement in KD vs hu2.10 [fold]
1 | B1 | 170 | 260 | 0.0018 | 7000 |  | 
2 | B2 | 230 | 360 | 0.0024 | 6700 |  | 
3 | B3 | 35 | 55 | 0.00035 | 6300 | ≥ 125 | 
4 | B4 | 210 | 340 | 0.0016 | 4700 |  | 
5 | B5 | 40 | 67 | 0.00045 | 6700 |  | 
6 | B6 | 5.8 | 9.3 | 0.00018 | 20000 |  | 6

The binders below were run against T2, VEGF (human, UniProt P15692-4 27-191, limits assumed) (assay: competitive phage-ELISA, relative to pY0192).
T2 construct: Biotinylated in the KDR-IgG ELISA, amine-coupled to the chip in BIAcore; also called biotinylated VEGF; vascular endothelial growth factor
Protocol: In such an assay, phages were first serially diluted to determine a fractional saturation titer which was then held constant and used to incubate with varying concentrations of VEGF (starting at 200 nM to 0 nM) in solution. The mixture was then transferred onto plate precoated with VEGF (2 μg/mL) and blocked with 5% instant milk, and allowed to equilibrate for 1 hour at room temperature. Thereafter, the phage solution was removed and the remaining bound phages were detected with a solution of rabbit anti-phage antibody mixed with goat anti-rabbit conjugate of horse radish peroxidase. After an hour incubation at room temperature, the plate was developed with a chromogenic substrate, o-phenylenediamine (Sigma). The reaction was stopped with addition of ½ volume of 2.5 M H₂SO₄. Optical density at 492 nm was measured on a spectrophotometric plate reader.
IC50's were determined in a competitive phage-ELISA assay.

T2 sequence (P15692 other isoform, or with tags, fused parts or gaps limits assumed): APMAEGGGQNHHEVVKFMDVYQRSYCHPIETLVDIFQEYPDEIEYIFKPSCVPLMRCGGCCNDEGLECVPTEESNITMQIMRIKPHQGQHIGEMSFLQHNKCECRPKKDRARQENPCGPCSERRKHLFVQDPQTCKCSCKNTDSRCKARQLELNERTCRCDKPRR

Row | Binder | IC50 (mut)/IC50 (wt) [ratio]
7 | B7 | 1
8 | B8 | 1
9 | B9 | 14
10 | B10 | 4
11 | B11 | 1
12 | B12 | 1
13 | B13 | 4
14 | B14 | 3
15 | B15 | 1
16 | B16 | 1
17 | B17 | 1
18 | B18 | 1
19 | B19 | 2
20 | B20 | 2
21 | B21 | 1
22 | B22 | 1
23 | B23 | 1
24 | B24 | 2
25 | B25 | 1
26 | B26 | 2
27 | B27 | 1
28 | B28 | 1
29 | B29 | 3
30 | B30 | 2
31 | B31 | 1
32 | B32 | 1
